Laboratory results reported in the RNAGym collection of RNA variant scans (doi:10.1073/pnas.2313332121).

B1: TPR t1 (parent)
chain: GACCAAUCUGCCCUCAGAGCUCGAGAACAUCUUCGGAUGCAGAGGAGGCAGGCUUCGGUGGCGCGAUAGCGCCAACGUCCUCAACCUCCAAUGCAUCCCACCACAUGAUGAUGCCUGAAGAGCCUUGGUUUUUUG

Variants of: B1
Experiment: polymerase ribozyme fitness, log enrichment relative to wild type (log ratio); higher = more active; in vitro selection for triplet polymerase activity
In short: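 Mutant libraries of each subunit of a heterodimeric triplet polymerase ribozyme were built by PCR and transcribed. Each library went through one round of in vitro selection in triplicate: annealing with biotinylated primer, partner subunit and triplets, frozen incubation at −7 °C, gel excision of extended constructs, streptavidin-bead capture and RT-PCR. Input and output libraries were Illumina-sequenced; only genotypes with ≥10 input reads and ≥1 read per output were kept. Fitness is log2(genotype enrichment/wild-type enrichment), using inverse-variance-weighted replicate averages.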

Variant | polymerase ribozyme fitness (log ratio)
C49A C124U U132C | 1.03
G48U C49G U96A | -1.45
G48U G110A | -1.84
G48A G57U A95C U112A C114A | -3.34
C49A A111C G113U | -5.03
G48C C62U U92G | -3.68
G48A C88A G113U G120A | -4.63
G48U G93U | -1.29
C49A C56A | -0.845
G48U C62A G127C | -3.44
G48C G63A C101U | -0.648
G48C C72A C79G G127C | -3.9
C49A G61C C80G C104A G117U | -8.34
G48C C64G C124U | -5.87
G48U U59G C80A G120U C123A | -4.73
G48U G60U A66C U78G A90G C123A U132A | -1.91
G48C C73G G93A | -1.8
C49A G61A G110U U125C | -2.14
C49A C80A U112A | -5.57
G48U U55G U112A | 0.525
G48C C62U | -2.91

Variant | polymerase ribozyme fitness (log ratio)
G48A U87C C101A A105U | -3.9
G48U C101A U116G U130A | -4.7
C49A C72U G77U | -2.22
G48C G127C | -1.62
G48C C73A U112A G120C | -0.954
G48A U81A C98U | -2.94
C49A C89A | -1.76
G48A C64U A95U G110C C115A | -5.72
C49A A50U C62U C88G C123U | -0.464
C49A C114U | -1.61
G48C G52U U55G C76U A100C U125G | -4.57
G48C A111C | -0.761
G48C C123G | 0.677
G48U U59C | 0.407
G48C U55C A95C C98U | -3.28
G48U U109A | -5.53
G48U U109G | -4.7
G48A G69U C98G U125A U131C | -3.58
G48U C56A G69U C89A C115A A118U | -1.82
G48C C114A | -1.76
C49A G52C C72A U96C | -0.937

Variant | polymerase ribozyme fitness (log ratio)
G48U G58U G60U C82G C123U | 0.461
G48C C53U U54C U81A | -2.99
G48A C73U C82U G93U | -1.54
G48U A121C | -0.0339
G48C A103U G120A | -6.04
G48A C72G C124U | 0.723
G48U U112C | 0.623
G48C C56A | -1.68
G48C C49A U129A | -3.14
C49A C72U G113A G128C | -4.46
C49A C70A C73U U87A | -3.37
G48A G63U A121U | 0.283
C49A C53U C101A | -1.38
G48U A50U C89G U106A U116C C124U | -3.34
G48U G71A | -1.06
G48U G71U | -1.01
G48A U92A | -3.51
G48U C86A A91C | -1.98
G48C A90G | 0.432
G48U U106A G128C | -3.74
G48C G57U U96C | -0.888

Variant | polymerase ribozyme fitness (log ratio)
G48U G69C | -2.22
C49A A74G U116G | -1.13
G48A C97A | -5.22
C49A G61C C88U G117A G135C | -3.6
G48C G77A | -1.21
G48C A50G G51U C56G G117A | -5.49
G48C G69A | -3.69
G48A G107A | -7.39
G48A U81C C102A A121C | -0.944
C49A C73A C88U A91U | -1.03
G48C C49A G128A | -3.09
G48A C80G A95C U109G | -7.79
C49A C72A C94A | -0.633
G48C A103G | -5.44
C49A C72A G110C U112A | -6.75
G48A C124U U133G | 0.41
G48C C101U A105G G120U | -3.67
C49A C88U C94U C123U U132G G135U | -1.38
C49A C70A G120C U126C U131G | -1.57
G48C C49U G71C C102A | -4.66
C49A C73A C101G C115A G120A | -2.56
